Laboratory results published in patent publication US20030021776.
pKd: −log10 of the molar value.

Assays:
[1] = biological target: ZEN-7A 1 (VZ-573) (synthetic) (UniProt P08047); experiment: EMSA
[2] = test system: VG 8A (VZ-475) (synthetic); experiment: EMSA
[3] = biological target: VEGF 1C (synthetic) (UniProt P08047); experiment: EMSA
[4] = test system: GATA82Z678 (synthetic); experiment: EMSA
[5] = test system: EP10A (synthetic); experiment: EMSA
[6] = test system: HUM 17A (VZ+472) (synthetic); experiment: EMSA; conditions: F3 printed RSDNLTZ, listing RSDNLTQ
Chain of HUM 17A (VZ+472) (synthetic) (chain, as listed by the source): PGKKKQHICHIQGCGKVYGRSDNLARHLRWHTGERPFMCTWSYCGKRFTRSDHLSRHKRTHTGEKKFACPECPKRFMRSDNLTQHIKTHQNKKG

[7] = biological target: VEGF 1D (synthetic) (UniProt P08047); experiment: EMSA
[8] = test system: mVZ+57 (VG10A/8A, MVG) (synthetic); experiment: EMSA; conditions: text printed as Kds of 0.031 nM for the designed ZFPs; 100 mM KCl, 1 mM MgCl2, Zn
[9] = test system: VOP 30A-4 (VZ+42/+530, mVZ+509) (synthetic); experiment: EMSA; conditions: 170 mM KCl, 1.7 mM MgCl2, Zn
Chain of VOP 30A-4 (VZ+42/+530, mVZ+509) (synthetic) (chain, as listed by the source): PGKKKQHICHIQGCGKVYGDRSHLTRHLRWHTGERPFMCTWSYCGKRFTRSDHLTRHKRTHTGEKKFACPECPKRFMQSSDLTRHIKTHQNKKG

[10] = test system: PDF 5A (VZ+590) (synthetic); experiment: EMSA
Chain of PDF 5A (VZ+590) (synthetic) (chain, as listed by the source): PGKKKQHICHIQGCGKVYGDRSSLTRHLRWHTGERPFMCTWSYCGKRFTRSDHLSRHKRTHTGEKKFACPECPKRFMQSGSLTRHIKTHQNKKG

[11] = test system: SAN 16A (synthetic); experiment: EMSA
Chain of SAN 16A (synthetic) (chain, as listed by the source): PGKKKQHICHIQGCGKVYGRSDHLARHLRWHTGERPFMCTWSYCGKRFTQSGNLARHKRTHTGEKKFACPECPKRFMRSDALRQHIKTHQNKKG

[12] = test system: VG10A/8A-VP16 (synthetic); experiment: cell_activity; conditions: mouse VEGF promoter reporter activation in mouse cells
[13] = test system: HP38 4A (synthetic); experiment: EMSA
Chain of HP38 4A (synthetic) (chain, as listed by the source): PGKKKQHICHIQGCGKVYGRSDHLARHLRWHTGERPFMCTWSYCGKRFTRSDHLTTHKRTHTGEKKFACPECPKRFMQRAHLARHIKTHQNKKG

[14] = test system: RAT 24A (synthetic); experiment: EMSA
Chain of RAT 24A (synthetic) (chain, as listed by the source): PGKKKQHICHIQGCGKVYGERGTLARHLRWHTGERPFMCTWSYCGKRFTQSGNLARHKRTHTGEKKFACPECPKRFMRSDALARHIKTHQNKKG

[15] = biological target: VEGF 1* (synthetic) (UniProt P08047); experiment: EMSA
[16] = biological target: VEGF 1A (synthetic) (UniProt P08047); experiment: EMSA
[17] = biological target: VEGF 1 (VZ-8) (synthetic) (UniProt P08047); experiment: EMSA
[18] = biological target: HBV 3 (synthetic) (UniProt P08047); experiment: EMSA

Chain of GATA82Z678 (synthetic) (chain, as listed by the source): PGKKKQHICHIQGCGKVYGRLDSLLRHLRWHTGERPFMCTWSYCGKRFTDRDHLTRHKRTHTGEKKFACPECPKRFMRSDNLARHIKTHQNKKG
Chain of VG 8A (VZ-475) (synthetic) (chain, as listed by the source): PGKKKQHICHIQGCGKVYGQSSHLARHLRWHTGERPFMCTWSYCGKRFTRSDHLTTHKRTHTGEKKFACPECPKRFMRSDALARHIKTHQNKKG
Chain of EP10A (synthetic) (chain, as listed by the source): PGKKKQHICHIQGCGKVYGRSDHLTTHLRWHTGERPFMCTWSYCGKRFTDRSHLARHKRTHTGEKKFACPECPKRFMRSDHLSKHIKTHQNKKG

Sequence: GGGGGHGCT (double strand) [ZEN-7A 1 target]
- pKd [1]: 9.20

Sequence: GDGTGGGGN (double strand) [VG 8A target]
- pKd [2]: 9.46

Sequence: GGGGVGGAT (double strand) [VEGF 1C target]
- pKd [3]: 9.00

Sequence: GAGKGKGYG (double strand) [GATA82Z678 target]
- pKd [4]: 8.74

Sequence: KGGGGCTGG (double strand) [EP10A target]
- pKd [5]: 9.46

Sequence: ARGGGGGAG (double strand) [HUM 17A target]
- pKd [6]: > 10.70

Sequence: GGGGAGGMT (double strand) [VEGF 1D target]
- pKd [7]: 8.70

Sequence: TGAGCGGCGGCAGCGGAGC (double strand) [mVZ+57 target]
- pKd [8]: > 10.51

Sequence: GCTGGGGGCK (double strand) [VZ+42/+530 target]
- pKd [9]: > 10.70

Sequence: GYAGGGGCC (double strand) [PDF 5A target]
- pKd [10]: 9.64

Sequence: AKGGAAGGG (double strand) [SAN 16A target]
- pKd [11]: 8.99

Sequence: TGAGCGGCGGCAGCGGAG (double strand) [VG10A/8A target]
- activity [12]: 29 fold

Sequence: GGDTGGGGG (double strand) [HP38 4A target]
- pKd [13]: 9.13

Sequence: GDGGAAGHC (double strand) [RAT 24A target]
- pKd [14]: > 10.70

Sequence: GGGGAGGVK (double strand) [VEGF 1 / 1* / 1A target]
- pKd [15]: 8.52
- pKd [16]: 9.70
- pKd [17]: 8.55

Sequence: GGGGGAGGW (double strand) [HBV 3 target]
- pKd [18]: 7.52
